This is an account of results in patent US11584938B2, “Plant EPSPS mutant containing L195P and S247G mutations and encoding gene and use thereof” (GEVOTO LLC, priority 2017, dated 2023).

The subject of this series is double knockout E. coli (EPSPS defective E. coli, EDCE). The series is described as follows: growth of EPSPS defective E. coli transformed by the EPSPS gene in M9 culture media containing different glyphosate concentrations. As to conditions: for EPSPS enzyme activity: concluded from growth of defective E. coli at 0 mM glyphosate. Format: cell-based, E. coli DH5α. An excerpt: A method for detecting the glyphosate resistance of the soybean EPSPS mutant G1 provided in Example 1 and the soybean EPSPS mutant G3 provided in Example 2 is as follows:
according to the sequence of the nucleic acid molecule provided in the example, synthesizing the encoding gene that encodes the soybean EPSPS mutant G1 or G3 using a chemical synthesis method, introducing enzyme sites (Pac1 and Sbf1) at two ends thereof, connecting to an expression vector (for example, a pADV5 vector, the structure of which is as shown in FIG. 15) that has undergone the same restriction enzyme digestion treatment under the action of ligase after restriction enzyme digestion, then transforming double knockout E. coli, picking positive colonies after verification, inoculating the positive colonies to M9 culture media containing different glyphosate concentrations for growth, and observing the growth situation of the E. coli.
The wild-type soybean EPSPS (with an amino acid sequence represented by SEQ ID NO: 2 and an encoding gene sequence represented by SEQ ID NO: 1) and the soybean EPSPS mutant G2 (with an amino acid sequence represented by SEQ ID NO: 6, and a corresponding encoding gene sequence represented by SEQ ID NO: 5) merely containing the mutation P114(101)S were taken as controls.
In the above, the M9 basal culture medium can be prepared by the following method:
5×M9 salt solution: 6.78 g of Na2HPO4, 3.0 g of KH2PO4, 0.5 g of NaCl, and 1.0 g of NH4Cl were weighed, added with ddH2O to 200 ml, and subjected to high-temperature and high-pressure sterilization treatment;
20% glucose: 20 g of glucose was weighed, added with 80 ml of ddH2O for dissolving, diluted to 100 ml, and subjected to filtration and sterilization treatment;
1.0 M MgSO4: 24.6 g of MgSO4-7H2O was weighed, dissolved with 80 ml of ddH2O, diluted to 100 ml, and subjected to sterilization treatment;
1.0 M CaCl2: 11.1 g of CaCl2 was weighed, dissolved with 80 ml of ddH2O, diluted to 100 ml, and subjected to sterilization treatment; and
1000 ml of the M9 basal culture media were prepared by adding ddH2O to 200 ml of 5×M9 salt solution, 20 ml of 20% glucose, 2 ml of 1.0 M MgSO4 and 0.1 ml of 1.0 M CaCl2 to make up to 1000 ml.
In the above, the E. coli used was double knockout E. coli, namely, EPSPS defective E. coli (E. coli DH5α with EPSPS gene and C-P Lyase gene being knocked out, named as EDCE, wherein for a preparation method thereof, reference can be made to a Chinese invention patent with the filing number CN2016103256926).
The glyphosate resistance of the soybean EPSPS mutant G4 provided in Example 3 and the soybean EPSPS mutant G5 provided in Example 4 was verified with reference to the detection method in Experiment Example 1.
The wild-type wheat EPSPS (with an amino acid sequence represented by SEQ ID NO: 14, and a corresponding encoding gene sequence represented by SEQ ID NO: 13) and the wheat EPSPS mutant T2 (with an amino acid sequence represented by SEQ ID NO: 18, and a corresponding encoding gene sequence represented by SEQ ID NO: 17) merely containing the mutation P118(101)S were taken as controls to verify the glyphosate resistance of the wheat EPSPS mutants T1 and T3 provided in Example 5 and Example 6, and reference can be made to Experiment Example 1 for the method.
A method for verifying the glyphosate resistance of the wheat EPSPS mutants T4, T5, and T6 provided in Examples 7-9 is the same as that in Experiment Example 3.
The wild-type rice EPSPS R0 (with an amino acid sequence represented by SEQ ID NO: 28, and a corresponding encoding gene sequence represented by SEQ ID NO: 27) and the rice EPSPS mutant R2 (with an amino acid sequence represented by SEQ ID NO: 32, and a corresponding encoding gene sequence represented by SEQ ID NO: 31) merely containing the mutation P116(101)S were taken as controls to verify the glyphosate resistance of the rice EPSPS mutants R1 and R3 provided in Examples 10 and 11, and reference can be made to Experiment Example 1 for the method. […]

Where [1] appears, read: culture media containing 0 mM glyphosate.
Where [2] appears, read: culture media containing 5 mM glyphosate.
[3] abbreviates: culture media containing 10 mM glyphosate.
Setting [4] is: culture media containing 20 mM glyphosate.

Entries after “also recorded” stand apart in the source; their conditions may differ.

B1: R0: wild-type rice EPSPS, amino acid sequence SEQ ID NO: 28; control (protein, listed as Oryza sativa)
chain: MASNAAAAAAKAEEIVLQPIREISGAVQLPGSKSLSNRILLLSALSEGTTVVDNLLNSEDVHYMLEALKALGLSVEADKVAKRAVVVGCGGKFPVEKDAKEEVQLFLGNAGTAMRPLTAAVTAAGGNATYVLDGVPRMRERPIGDLVVGLKQLGADVDCFLGTECPPVRVKGIGGLPGGKVKLSGSISSQYLSALLMAAPLALGDVEIEIIDKLISIPYVEMTLRLMERFGVKAEHSDSWDRFYIKGGQKYKSPGNAYVEGDASSASYFLAGAAITGGTVTVQGCGTTSLQGDVKFAEVLEMMGAKVTWTDTSVTVTGPPREPYGKKHLKAVDVNMNKMPDVAMTLAVVALFADGPTAIRDVASWRVKETERMVAIRTELTKLGASVEEGPDYCIITPPEKLNITAIDTYDDHRMAMAFSLAACADVPVTIRDPGCTRKTFPNYFDVLSTFVRN
Consider B1, for which the “growth of the E. coli transformed by the EPSPS” value (from here on “growth … by the EPSPS”) was “could grow” under setting [1], “could not grow” under setting [2] and “could not grow” under setting [3].

B2: R1: rice EPSPS mutant, SEQ ID NO: 30, mutation L214(195)P (protein)
chain: MASNAAAAAAKAEEIVLQPIREISGAVQLPGSKSLSNRILLLSALSEGTTVVDNLLNSEDVHYMLEALKALGLSVEADKVAKRAVVVGCGGKFPVEKDAKEEVQLFLGNAGTAMRPLTAAVTAAGGNATYVLDGVPRMRERPIGDLVVGLKQLGADVDCFLGTECPPVRVKGIGGLPGGKVKLSGSISSQYLSALLMAAPLALGDVEIEIIDKPISIPYVEMTLRLMERFGVKAEHSDSWDRFYIKGGQKYKSPGNAYVEGDASSASYFLAGAAITGGTVTVQGCGTTSLQGDVKFAEVLEMMGAKVTWTDTSVTVTGPPREPYGKKHLKAVDVNMNKMPDVAMTLAVVALFADGPTAIRDVASWRVKETERMVAIRTELTKLGASVEEGPDYCIITPPEKLNITAIDTYDDHRMAMAFSLAACADVPVTIRDPGCTRKTFPNYFDVLSTFVRN
Regarding B2, the EPSPS enzyme activity entry is reported as “normal EPSPS enzyme activity”. In addition, the “growth … by the EPSPS” value under setting [1] was “could grow”. Moreover, the “growth … by the EPSPS” value under setting [2] is “could grow normally”. Also, the “growth … by the EPSPS” value under setting [3] is given as “grew obviously; also recorded: could grow normally”. For the same molecule, the “growth … by the EPSPS” value under setting [4] is “grew obviously”.

B3: T6: wheat EPSPS mutant, SEQ ID NO: 26, mutations L216(195)P, S269(247)G and P118(101)S (protein)
chain: MATSVAAPAAPAGAEEVVLQPIREISGAVQLPGSKSLSNRILLLSALSEGTTVVDNLLNSEDVHYMLEALEALGLSVEADKVAKRAVVVGCGGRFPVEKDAKEEVKLFLGNAGTAMRSLTAAVVAAGGNATYVLDGVPRMRERPIGDLVVGLQQLGADVDCFLGTNCPPVRINGKGGLPGGKVKLSGSISSQYLSSLLMAAPLALEDVEIEIIDKPISVPYVEMTLKLMEHFGVTAEHSDSWDRFYIKGGQKYKSPGNAYVEGDASSAGYFLAGAAITGGTVTVEGCGTTSLQGDVKFAEVLEMMGAKVTWTDTSVTVTGPPRQPFGRKHLKAVDVNMNKMPDVAMTLAVVALFADGPTAIRDVASWRVKETERMVAIRTELTKLGATVEEGPDYCIITPPEKLNITAIDTYDDHRMAMAFSLAACAEVPVTIRDPGCTRKTFPNYFDVLSTFVKN
Turning to B3, the EPSPS enzyme activity entry was “normal EPSPS enzyme activity”. Moreover, the “growth … by the EPSPS” value under setting [1] is given as “could grow”. For the same molecule, the “growth … by the EPSPS” value (culture media containing 1 mM glyphosate) is recorded as “could grow normally”. Besides, under setting [2], the “growth … by the EPSPS” value is reported as “could grow” and the “growth of the transformed E. coli compared with E. coli transformed by the control EPSPS named in the value” is reported as “obviously superior to that of the E. coli transformed by T2”. Under setting [4], the “growth … by the EPSPS” value is “could grow” and the “growth of the transformed E. coli compared with E. coli transformed by the control EPSPS named in the value” was “obviously superior to that of the E. coli transformed by T2”.
